# Results published in patent US20120301468A1, “ANTI-MN ANTIBODIES AND METHODS OF USING SAME” (BAYER HEALTHCARE LLC, priority 2005, published 2012).
# Legend:
# MN-negative DLD cells = assay: FACS cell binding, DLD cells; type: cell-based
# Experimental: (§1) Cells may be assayed for MN expression as a diagnostic tool. Adherent MN-expressing PC-3 mm2 cells and non-MN expressing DLD1 cells were detached from their flasks with 1:10 trypsin/Versene in PBS solution for 5 to 10 minutes. Cells were spun down (1000 rpm, 5 minutes), washed once with ice cold RPMI 10% FBS, and resuspended in ice-cold staining buffer (Ca^+ Mg^+-free PBS, 2% BSA, and 0.05% sodium azide) at 6×10^6 cells/ml. Primary antibody, human anti-MN IgG1, or control human IgG1 antibody at 25 μg/mL were incubated with 6×10^5 cells on ice for 1 hour. The unbound antibody was washed from the cells with the ice-cold staining buffer. The cells were fixed with 2% formaldehyde in PBS for 10 minutes, then washed twice with staining buffer. The cell pellet was resuspended in 100 μl ice cold staining buffer containing anti-human Alexa fluor 488 secondary antibody (final conc. 1:200, Molecular Probes/Invitrogen, Carlsbad, Calif.), and incubated on ice for 1 hour. The unbound antibody was washed from the cells two times with flow buffer (PBS containing 2% BSA), and the cells were resuspended in 1 mL flow buffer. FACS analysis of the resuspended cells was performed on a […] FACS Caliber instrument.
# The MN antibody G250, a humanized IgG1 antibody, (Wilex) was used as a reference throughout the in vitro studies.
# MN+ (PC3 mm2) cells = assay: FACS cell binding, PC3 mm2 cells; type: cell-based, human; conditions: MN+ cells (PC3 mm2, FIGS. 10b, 10c)
# Experimental: as §1
# [1] = test system: MN-expressing PC3 mm2 cells; assay: In vitro cytotoxicity, PC3 mm2
# MN = MN (Homo sapiens, UniProt Q16790); assay: Immunoprecipitation of biotinylated cell surface proteins; type: binding; parameters: incubated with cell lysates of MN+ (Pc3 mm2) and MN− (DLD-1) cell lines that had been selectively labeled with biotin; endogenous in cells; host or cells: PC-3 mm2 (MN+); DLD-1 as the MN- control; conditions: biotin-labeled lysates of MN+ (Pc3 mm2) and MN− (DLD-1) cell lines
# Experimental: To further explore specificity, various candidate antibodies including the antibody portion of 3ee9/MMAE (3ee9) and the reference antibody G250 were incubated with cell lysates of MN+ (Pc3 mm2) and MN− (DLD-1) cell lines that had been selectively labeled with biotin. Complexes between the antibodies and cellular proteins were immuno-precipitated and the co-precipitated antigens visualized using immunoblots developed with enzyme-linked streptavidin.
# [2] = test system: MaTu human mammary carcinoma xenograft; conditions: MaTu xenograft; 30 mg/kg immunoconjugate; i.v. Q4Dx3
# Experimental: Anti-MN antibodies were conjugated to cytotoxic small molecules using protocols that are known in the art (e.g., Liu, et al., Proc. Natl. Acad. Sci. 93:8618-8623, 1996). Human mammary xenograft, MaTu cells were maintained as adherent cultures in RPMI supplemented with 10% FBS. Ncr nude mice (8-12 weeks of age) were inoculated subcutaneously in the right flank with 5×10^6 cells in 0.1 mL of 80% matrigel/20% HBSS. When tumors reached an average size of ˜180 mg (6 days), treatment was initiated. Monoclonal antibodies conjugated to cytotoxic small molecules were administered i.v. once every four days (Q4Dx3) at a dose of 10 mg/kg. […] The length and width of each tumor was measured by using an electronic caliper 2-3 times per week and tumor weights (mg) were calculated based on the formula of [length (mm)×width (mm)^2]/2. […] Tumor growth inhibition (TGI) was calculated as 1−T/C×100, where T=final tumor weights from a treated group, and C=final tumor weights from the control group.
# The in vivo anti-tumor effect of 3ee9/MMAE was examined in 6 different human xenograft tumor models. […] The human tumor xenograft models evaluated included the MaTu human mammary carcinoma model, the HT-29 and Colo-205 human colo-rectal carcinoma (CRC) models, PC3MM2 prostate carcinoma model, the HCT-15 multi-drug resistant (P-gp) CRC model, and the MiaPaCa2 human pancreatic model. […]
# [3] = test system: adhesion of MaTu cells to MN-coated wells; assay: Cell adhesion assay; type: cell-based, human; conditions: 100 μg antibody; 5000 MaTu cells
# Experimental: Fifty (50) μL of a 1 μg/mL solution of purified MN in PBS was adsorbed onto a non-treated 96-well plate overnight at 4° C. The solution was removed, and the wells rinsed 3× with PBS. The wells were blocked for 1 hour with 200 μL 50% FBS in RPMI1640 media. The wells were then treated with 100 μg 1e4 anti-MN antibody in 1% BSA in PBS, control IgG in 1% BSA in PBS or 1% BSA in PBS. After washing with PBS, 5000 MaTu cells (MN+ cells) were added to the wells and the plate incubated overnight at 37° C. at 5% CO2. The ability of anti-MN antibodies to block adhesion of MaTu cells to MN-coated wells was assessed after washing with PBS.
# MN-negative cells (DLD1) = assay: Antibody internalization (Cellomics), DLD1; type: cell-based
# MN+ cells (MaTu) = assay: In vitro cytotoxicity, MaTu
# [4] = test system: MN-expressing cells (PC3 mm2); assay: Antibody internalization (Cellomics), PC3 mm2; type: cell-based, human
Molecule,cell binding by FACS (MN-negative DLD cells),cell binding by FACS (MN+ (PC3 mm2) cells),cytotoxicity [1],co-immunoprecipitated proteins (specificity) (MN),anti-tumor effect [2],inhibition of cell adhesion [3],internalization (MN-negative cells (DLD1)),cytotoxicity (MN+ cells (MaTu)),internalization [4]
1aa1 immunoconjugate (conjugate) VH: QVELVQSGAEVKKPGASVKVSCKASGYTFTTNYMHWVRQAPGQGLEWMGIINPHNGSTSYAQKFQGRVTMTRDTSISTAYMELSSLRSEDTAVYYCARGRYFLMDVWGQGTLVTVSS VL: DIQMTQSPSSLSASVGDRVTITCRASQNILSYLNWYQQKPGKAPKLLIYAASSLQSGVPSRFSGSGSGTDFTLTISSLQPEDFAVYYCQQYGSVPTFGQGTKVEIK,not to MN− cells,exhibited binding to MN+ cells,selectively cytotoxic for MN+ cells,–,–,–,–,–,–
"5aa3: anti-MN antibody; CDRs SEQ ID NOS: 81, 83, 85, 104, 105, and 106 (antibody, V domains shown) VH: QVELVQSGAEVKKPGESLKISCKGSGYSFTGYISWVRQAPGKGLEWMGIIYPGDSYTNYSPSFQGQVTISADKSISTAYLQWSSLKASDTAMYYCARYSGPNWDVMDSWGQGTLVTVSS VL: DIVLTQPPSVSGAPGQRVTISCSGSSSNIGSYYVNWYQQLPGTAPKLLIYADDKRPSGVPDRFSGSKSGTSASLAITGLQSEDEADYYCQSYDSTKDDSVFGGGTKLTVL",–,–,–,co-immunoprecipitated several other proteins in addition to MN,–,–,–,–,–
"1e4: anti-MN monoclonal IgG1; CDRs SEQ ID NOS: 59, 65, 72, 107, 109, and 111 (antibody, V domains shown) VH: ELVESGGGLVQPGGSLRLSCAASGFTFSNNAMNWVRQAPGKGLEWVSGISYDSSKTYYADSVKGRFTISRDNSKNTLYLQMNSLRAEDTAVYYCARLTYTGAYRWGQGTLVTVSS VL: DIELTQPPSVSVAPGQTARISCSGDNLGSYYVHWYQQKPGQAPVLVIYDDNNRPSGIPERFSGSNSGNTATLTISGTQAEDEADYYCQSYDFGKVVFGGGTKLTVL",–,–,–,–,no effect,inhibits cell adhesion,–,–,–
1E4 immunoconjugate (conjugate) VH: QVELVESGGGLVQPGGSLRLSCAASGFTFSNNAMNWVRQAPGKGLEWVSGISYDSSKTYYADSVKGRFTISRDNSKNTLYLQMNSLRAEDTAVYYCARLTYTGAYRWGQGTLVTVSS VL: DIELTQPPSVSVAPGQTARISCSGDNLGSYYVHWYQQKPGQAPVLVIYDDNNRPSGIPERFSGSNSGNTATLTISGTQAEDEADYYCQSYDFGKVVFGGGTKLTVL,not to MN− cells,exhibited binding to MN+ cells,selectively cytotoxic for MN+ cells,–,significant anti-tumor effect,–,not by MN− (DLD1) cells,selectively cytotoxic for MN+ cells,internalized by MN+ cells (PC3 mm2)
